In paper PMC7325863 (Neurobiology of aging, 2019):

Biological target: Presenilin 1 (mouse (endogenous in primary neurons of …, UniProt P49769 1-467))
Experiment: co-IP

B1: Synaptotagmin 1 (natural protein)
chain: MVSASRPEALAAPVTTVATLVPHNATEPASPGEGKEDAFSKLKQKFMNELHKIPLPPWALIAIAIVAVLLVVTCCFCVCKKCLFKKKNKKKGKEKGGKNAINMKDVKDLGKTMKDQALKDDDAETGLTDGEEKEEPKEEEKLGKLQYSLDYDFQNNQLLVGIIQAAELPALDMGGTSDPYVKVFLLPDKKKKFETKVHRKTLNPVFNEQFTFKVPYSELGGKTLVMAVYDFDRFSKHDIIGEFKVPMNTVDFGHVTEEWRDLQSAEKEEQEKLGDICFSLRYVPTAGKLTVVILEAKNLKKMDVGGLSDPYVKIHLMQNGKRLKKKKTTIKKNTLNPYYNESFSFEVPFEQIQKVQVVVTVLDYDKIGKNDAIGKVFVGYNSTGAELRHWSDMLANPRRPIAQWHTLQVEEEVDAMLAVKK
- fold change of co-precipitated Syt-1/PS1, old against young neurons (-KCl): 1.79 fold
